{
  "source": "the RNAGym collection of RNA variant scans (doi:10.7554/elife.80360)",
  "parents": {"B1": {"name": "HDV Ribozyme (parent)", "chain": "GGCCGGCAUGGUCCCAGCCUCCUCGCUGGCGCCGGCUGGGCAACAUUCCGAGGGGACCGUCCCCUCGGUAAUGGCGAAUGGGACCCA"}},
  "data": [
    {"variants_of": "B1", "assay": "self-cleavage, relative activity (ratio to wild type); higher = more cleavage; co-transcriptional", "values": [
      {"variant": "GGCCGGCCUGGUCCCAGCCUCCUCGCUGGCGCCGGCUAGGCAACAUUCCGAGGGGACCGUCCCCUCGGUAAUGGCGAAUGGGACCCA", "self-cleavage": 0.0369},
      {"variant": "GGCCGGCAUGGACCCAGCCUCCUCGCUGGAGCCGGCUGGGCAACAUUCCGAGGGGACCGUCCCCUCGGUAAUGGCGAAUGGGACCCA", "self-cleavage": 0.0652},
      {"variant": "GGCCGGCAUGGUCCCAGCUUCCUCGCUGGCGCCGGCUGGGCAACAUUCCGAGGGGACAGUCCCCUCGGUAAUGGCGAAUGGGACCCA", "self-cleavage": 0.086},
      {"variant": "GGCCGGCAUGGUCCCAGCCUCCUCGCUGGCGGCGGCUGGGCAACAUUCCGAGGGGACCGUCCCCUCAGUAAUGGCGAAUGGGACCCA", "self-cleavage": 0.16},
      {"variant": "GGCCGGCAUGGUCCCAGCCUCCUCGCUGGCGCCGGCUGGGCAACAUUCCGAGGGGACCGUCCCCUCGGUAAUGGCGGAUGAGACCCA", "self-cleavage": 0.287},
      {"variant": "GGCCGGCAUGGUCCCAGCCUCCUCGCUGGCGCCGGCUGGGCAACAUUCCGAGGGGAACGUCCCCUCGGUAAUGGCGACUGGGACCCA", "self-cleavage": 0.0437},
      {"variant": "GGCUGGCAUGCUCCCAGCCUCCUCGCUGGCGCCGGCUGGGCAACAUUCCGAGGGGACCGUCCCCUCGGUAAUGGCGAAUGGGACCCA", "self-cleavage": 0},
      {"variant": "GGCCAGCAUGGUCCCAGCCUCCUCGCUGGCGCCGGCUGGGCAACAUUCCGAGGGGACCGUCCCGUCGGUAAUGGCGAAUGGGACCCA", "self-cleavage": 0.237},
      {"variant": "GGCCUGCAUAGUCCCAGCCUCCUCGCUGGCGCCGGCUGGGCAACAUUCCGAGGGGACCGUCCCCUCGGUAAUGGCGAAUGGGACCCA", "self-cleavage": 0.135},
      {"variant": "GGCCGGCAUGGUCCCAGCCUCCUCGCUGGCGCCGGCUGGGCAACAUCCCGAGGGGACCGUCCCCUCGGUAAUGGGGAAUGGGACCCA", "self-cleavage": 0},
      {"variant": "GGCCGGCAUGGUCCCAGCCUCCUCGCUGGCGCCGACUGGGCAACAUUCCGAGGGGACCGUGCCCUCGGUAAUGGCGAAUGGGACCCA", "self-cleavage": 0.465},
      {"variant": "GGCCGGCAUGGUCCCAGCCUCCUCGCGGGCGCCGGCUGGGCAACAUUCCGAGGGGACCGUCCCCUCGGUAAUGGCCAAUGGGACCCA", "self-cleavage": 1.14},
      {"variant": "GGCCGGAAUGGUCCCAGCCUCCUCGCUGGCGCCGGCUGGGAAACAUUCCGAGGGGACCGUCCCCUCGGUAAUGGCGAAUGGGACCCA", "self-cleavage": 0.342},
      {"variant": "GGCCGGCAUGGUCCCAGCCUCCUCGCUGGCGCCGGCUGGGCAACAUUCCGAUGGGACCCUCCCCUCGGUAAUGGCGAAUGGGACCCA", "self-cleavage": 0.765},
      {"variant": "GGCCGGCAUGGUCCCAGCCUCCUCGCUGGCGCCGGCUGGGCAACAUACCGAGGGGACCGUCACCUCGGUAAUGGCGAAUGGGACCCA", "self-cleavage": 1.01},
      {"variant": "GGCCGGCAUGGUCCCAGCCUCCUCGCUGGCGCCGGCUGGGCAACAUUCCGAGGGGACCGUCCCCUCGCUAAUGGCGAAUGGGACCCG", "self-cleavage": 0.948},
      {"variant": "GGCCGGCAUGGUCCCAGCCUCCUCGCUGGCGCCGACUGGGCAACAUCCCGAGGGGACCGUCCCCUCGGUAAUGGCGAAUGGGACCCA", "self-cleavage": 0.489},
      {"variant": "GGCCGGCAUGGUCCCAGCCUCCUCGCUGGCGCCGGCAGGGCAACAUUCCGAGGGGACCGUCCGCUCGGUAAUGGCGAAUGGGACCCA", "self-cleavage": 0.17},
      {"variant": "GGCCGGCAUGGUCCCAGCCUCCUCGCUGGCGCCGGCUGGGCAACAUUCAAAGGGGACCGUCCCCUCGGUAAUGGCGAAUGGGACCCA", "self-cleavage": 0.929},
      {"variant": "GGCCGGCAUGGUCCCAGCCUCCUCGCUGGCGCCGGCUGGGCAACAUUCCGAGGGGAGCGUCCCCUCGGUAGUGGCGAAUGGGACCCA", "self-cleavage": 1.08},
      {"variant": "GGCCGGCAUGGUCCCAGCCUCCUCGCUGGCACCGGCUGGGAAACAUUCCGAGGGGACCGUCCCCUCGGUAAUGGCGAAUGGGACCCA", "self-cleavage": 0.273},
      {"variant": "GGCCGGCAUGGUCCCAGCCUCCUCGCUGGCGCCGGCUACGCAACAUUCCGAGGGGACCGUCCCCUCGGUAAUGGCGAAUGGGACCCA", "self-cleavage": 0.0923},
      {"variant": "GGCCGGCACGGUCCCAGCCUCCUCGCUUGCGCCGGCUGGGCAACAUUCCGAGGGGACCGUCCCCUCGGUAAUGGCGAAUGGGACCCA", "self-cleavage": 0.123},
      {"variant": "GGCCGGCAUGGUCCCAGCCACCUCCCUGGCGCCGGCUGGGCAACAUUCCGAGGGGACCGUCCCCUCGGUAAUGGCGAAUGGGACCCA", "self-cleavage": 0.151},
      {"variant": "GGCCGGCAUGGUCCCAGCCUCCUCGCUGGCGCCGGCUGGGCAACAUCCCGAGGGGACCGUCCCCUCGGUAAUGGCGAAUCGGACCCA", "self-cleavage": 0.138},
      {"variant": "GGCCGGCAUGGUCCCAGCCUCCUCGAUGGCGUCGGCUGGGCAACAUUCCGAGGGGACCGUCCCCUCGGUAAUGGCGAAUGGGACCCA", "self-cleavage": 0.816},
      {"variant": "GGCCGGCAUGGUCCCAGCCUCCUCGCUGGCGCCGGCUGGGCAACAUUCCGAGGGGACCGUCCCCUCGCUAAUUGCGAAUGGGACCCA", "self-cleavage": 0.158},
      {"variant": "GGCUGGCAUGGUCCCAGCCUCCUCGCUGGCGCCGGCUGGGCAACAUUCCGAUGGGACCGUCCCCUCGGUAAUGGCGAAUGGGACCCA", "self-cleavage": 0.831},
      {"variant": "GGCCGGCAUGGUCCCAGCCUCCUCGCUGGCGCCGGCUGGGCAAAAUUCCGAGGGGACCGUCCCCUCGGUAAUGGCGAAAGGGACCCA", "self-cleavage": 0.244},
      {"variant": "GGCCGGCAUGGUCCCAGCCUCCUCGCUGGCGCCGGCUGGGCAACAUUCCGAGGGGACCGUCCUCUCGGUAAUGGCGAAUGGGUCCCA", "self-cleavage": 0.584},
      {"variant": "GGCCGGCAUGGUCCCAGCCUCCUCGCUGGCGCCGGCUGGGCAACAUUGCGAGGGGACCGCCCCCUCGGUAAUGGCGAAUGGGACCCA", "self-cleavage": 0.969},
      {"variant": "GGCCGGAACGGUCCCAGCCUCCUCGCUGGCGCCGGCUGGGCAACAUUCCGAGGGGACCGUCCCCUCGGUAAUGGCGAAUGGGACCCA", "self-cleavage": 0.604}
    ]}
  ]
}
